Test results from the supplement of paper PMC12042874.
± gives the uncertainty stated by the source.

Assay: amyloid nucleation score (Sup35N fusion, yeast selection) (log enrichment); library NNK1; higher = more nucleation; inactive = no reads after selection
Procedure, shortened: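 Nucleation score is defined as the DiMSum log enrichment of output over input reads, with centring on the mode score of non-aggregating sequences. A minimum of 100 input reads was required for each sequence. Reads came from Illumina sequencing of plasmid inserts from psi-negative yeast expressing Sup35N fused to peptides of 20 random codons, induced with 100 μM copper sulfate for 24 hours and grown 7 days at 30°C on medium lacking adenine and uracil.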

Q: Which amyloid nucleation score does the source give for HPIEWSKVSDNIRRQSGCCG here?
A: 0.754 ± 0.33

Q: For LFWCVSVNRDIKIQCDRTLF, which amyloid nucleation score is on record?
A: 1.13 ± 0.51

Q: For SWMKSLLFVFGLTCQMRECV, which amyloid nucleation score is on record?
A: -0.544 ± 0.61

Q: Which amyloid nucleation score does the source give for WYVFLYFGCEKAMALSTNMT here?
A: inactive

Q: With ARAVFLGEVGSAFFCRQSVW as the substance, how does the amyloid nucleation score read?
A: 0.273 ± 0.74

Q: With GVWDGKRSYGSLQSWAFVPE as the substance, how does the amyloid nucleation score read?
A: -0.138 ± 0.41

Q: For SANRA, which amyloid nucleation score is on record?
A: 0.62 ± 0.41

Q: For HNVFDNLHMDSDKRMANSV, which amyloid nucleation score is on record?
A: 0.428 ± 0.4

Q: Which amyloid nucleation score does the source give for LSDRIAYVVRGC here?
A: 0.137 ± 0.43

Q: For YIRGNFYSYQWGNCFMGNFC, which amyloid nucleation score is on record?
A: 7.792 ± 0.05

Q: Which amyloid nucleation score does the source give for IWQFDWPHRGIEMRVRRDMT here?
A: 0.135 ± 0.69

Q: Which amyloid nucleation score does the source give for CSYCVAENQFMEFRGFMRGP here?
A: 0.234 ± 0.34

Q: For LTMPMKHLRGSPDLRVNGII, which amyloid nucleation score is on record?
A: -0.502 ± 0.85

Q: For GLELLAGVIHSWVRGSGALW, which amyloid nucleation score is on record?
A: -0.868 ± 0.84

Q: Which amyloid nucleation score does the source give for FLKNEHSYTGWCFSTWPVRY here?
A: 1.95 ± 0.29

Q: With GHNLRLWCCNEADHFFRAQR as the substance, how does the amyloid nucleation score read?
A: -1.16 ± 1.9

Q: With SSCVRN as the substance, how does the amyloid nucleation score read?
A: -0.153 ± 0.57

Q: For ESKVSGIVIFGGVEIAFYRG, which amyloid nucleation score is on record?
A: 5.22 ± 0.1

Q: With ATRFTR as the substance, how does the amyloid nucleation score read?
A: 0.282 ± 0.5

Q: Which amyloid nucleation score does the source give for DSNPNFCRLIKYVRNDCRTP here?
A: 0.012 ± 0.26

Q: For YSSERTLLALVGT, which amyloid nucleation score is on record?
A: -0.21 ± 0.51

Q: Which amyloid nucleation score does the source give for VKNRNKGTYRCWVVYITGKS here?
A: -0.205 ± 0.28

Q: Which amyloid nucleation score does the source give for KWVDEECFDFMKGGF here?
A: -0.756 ± 0.73

Q: With QDKAVIANNRWTKMCGRLDC as the substance, how does the amyloid nucleation score read?
A: 1 ± 0.59

Q: For IYLKWHFADY, which amyloid nucleation score is on record?
A: 0.529 ± 0.45

Q: Which amyloid nucleation score does the source give for LDRTVWH here?
A: 0.757 ± 0.34

Q: With RLLSPLY as the substance, how does the amyloid nucleation score read?
A: -0.773 ± 2.1

Q: With GFPTPEPEDNVARSVRWIYS as the substance, how does the amyloid nucleation score read?
A: -1.47 ± 1

Q: For GPVSGHRPIVRD, which amyloid nucleation score is on record?
A: -0.179 ± 1.1

Q: Which amyloid nucleation score does the source give for LFRFDYCLPGRFNRFWPDIS here?
A: 1.03 ± 0.18

Q: Which amyloid nucleation score does the source give for LYLHSWAYVHKNTLNYL here?
A: -0.14 ± 0.5

Q: With EHWSRSVGSHASVWFVAPAG as the substance, how does the amyloid nucleation score read?
A: inactive

Q: For VPWLKGAVDPVTRFGV, which amyloid nucleation score is on record?
A: -0.016 ± 0.78

Q: With GATVNSVWSVPKQVTWSGMC as the substance, how does the amyloid nucleation score read?
A: -0.138 ± 0.32

Q: Which amyloid nucleation score does the source give for SRVLSCEGWLK here?
A: -0.051 ± 0.9

Q: Which amyloid nucleation score does the source give for DAGRWSYPGRCPNMWLRLLM here?
A: -0.461 ± 0.68

Q: For GEYCKSLSTE, which amyloid nucleation score is on record?
A: 1.01 ± 0.93

Q: With MSGAESYLHLDLCRVTGIAS as the substance, how does the amyloid nucleation score read?
A: -0.24 ± 0.35

Q: With INAFYVVLIIRYVPSSKLLI as the substance, how does the amyloid nucleation score read?
A: inactive

Q: Which amyloid nucleation score does the source give for LFLFRSH here?
A: 5.445 ± 0.048

Q: Which amyloid nucleation score does the source give for HCSSFNILRMNDNE here?
A: 0.398 ± 0.23

Q: With IGSGYW as the substance, how does the amyloid nucleation score read?
A: -0.091 ± 0.52

Q: With WPELIFNGVPMSSCVLPGLF as the substance, how does the amyloid nucleation score read?
A: 1.12 ± 0.6

Q: For SLQINMTSSICLVST, which amyloid nucleation score is on record?
A: 3.35 ± 0.07

Q: With HQIPCPFRSRLARPGHLLEI as the substance, how does the amyloid nucleation score read?
A: -0.612 ± 1

Q: For LRNHASVPV, which amyloid nucleation score is on record?
A: 0.084 ± 0.4

Q: With LRFHEGVLGAMFEGSVCVLE as the substance, how does the amyloid nucleation score read?
A: -0.01 ± 1.5

Q: Which amyloid nucleation score does the source give for VLVFIFDSTVSI here?
A: 8.236 ± 0.046

Q: For YFVQYLYTLMLACYYWVISY, which amyloid nucleation score is on record?
A: -1.61 ± 1.4

Q: For KLVLRGVFIIDFWSNARRAS, which amyloid nucleation score is on record?
A: 0 ± 0.29

Q: With VNIKLLVVRAVFVILKDMGK as the substance, how does the amyloid nucleation score read?
A: 2.16 ± 0.12

Q: For GSGYFDGVIFIYLT, which amyloid nucleation score is on record?
A: -1.11 ± 1.1

Q: With YYMTIFERFSLHFTMGLNLG as the substance, how does the amyloid nucleation score read?
A: 0.752 ± 0.56

Q: Which amyloid nucleation score does the source give for PQVVRRGTHKVGRDNG here?
A: 0.186 ± 1.6

Q: Which amyloid nucleation score does the source give for FHGLSGMRYWTRFCMWSPAC here?
A: 1.36 ± 0.66

Q: For WIHACK, which amyloid nucleation score is on record?
A: 0.778 ± 0.45

Q: Which amyloid nucleation score does the source give for YKSISSDSAKWFVMGLNGLV here?
A: -1.6 ± 1.1

Q: Which amyloid nucleation score does the source give for SINRRALRLGHHSSGVMAGL here?
A: -0.547 ± 1.3

Q: With GGSFKGYSLIV as the substance, how does the amyloid nucleation score read?
A: 0.678 ± 0.66

Q: For LLYIRVADSRPGDLRWLSEV, which amyloid nucleation score is on record?
A: -0.106 ± 0.5

Q: With LRTMIVLGFSTWDTCIGSES as the substance, how does the amyloid nucleation score read?
A: -0.537 ± 0.28

Q: With LYIAH as the substance, how does the amyloid nucleation score read?
A: -0.722 ± 0.42

Q: For RRLQSNLSSCEASNPDTLRC, which amyloid nucleation score is on record?
A: 0.774 ± 0.36

Q: With LLQAQHSF as the substance, how does the amyloid nucleation score read?
A: 0.208 ± 0.21

Q: Which amyloid nucleation score does the source give for MMLSGFDIIYGIALCPLHVQ here?
A: -0.14 ± 0.3

Q: With MMGASGFF as the substance, how does the amyloid nucleation score read?
A: -0.14 ± 0.32

Q: With EFGRGSNRVEFIMGASLALT as the substance, how does the amyloid nucleation score read?
A: 1.09 ± 0.17

Q: Which amyloid nucleation score does the source give for AMWSSLIDMCNNG here?
A: 0.35 ± 0.25

Q: With FYLHRAIWPSYHVSRLVRHR as the substance, how does the amyloid nucleation score read?
A: -0.979 ± 2.7

Q: For FLRKHHSIMMVFMRIQGLRM, which amyloid nucleation score is on record?
A: -1.72 ± 1.7

Q: Which amyloid nucleation score does the source give for LCDFKTSEVPSEGTFWSVLA here?
A: 0.181 ± 0.51

Q: Which amyloid nucleation score does the source give for GFWSRSGSYQLICIYFGGYG here?
A: -0.296 ± 0.4

Q: Which amyloid nucleation score does the source give for EFLDELSGVVYSLLGYEVTR here?
A: 2.63 ± 0.13

Q: For NTADTFMNLAILSC, which amyloid nucleation score is on record?
A: 0.148 ± 0.35

Q: For ISWQAVTSRGTCNN, which amyloid nucleation score is on record?
A: -1.01 ± 0.68

Q: Which amyloid nucleation score does the source give for TPNMCGWLVLTSM here?
A: -0.448 ± 0.62

Q: Which amyloid nucleation score does the source give for TVYSMPKVTKTYGGFPAKSH here?
A: 0.312 ± 0.34

Q: Which amyloid nucleation score does the source give for QAFGRLSLATQPLLMEPRRL here?
A: 0.868 ± 0.41

Q: Which amyloid nucleation score does the source give for QSNPSPISNMLNPDCLYKNG here?
A: -0.013 ± 0.2

Q: For RAVANCVLSLCYWNCCLYRY, which amyloid nucleation score is on record?
A: -0.343 ± 1.4

Q: For SWDPNVSFALL, which amyloid nucleation score is on record?
A: 2.93 ± 0.25

Q: Which amyloid nucleation score does the source give for LQPLLISIKRRFLHYVSQNM here?
A: -0.073 ± 0.66

Q: Which amyloid nucleation score does the source give for TGMGGV here?
A: 0.177 ± 1.2

Q: For VRGSVGANGQHVPEDMTVRM, which amyloid nucleation score is on record?
A: 0.786 ± 0.44

Q: Which amyloid nucleation score does the source give for SVENNTAPICNTKSSVSDSL here?
A: 0.852 ± 0.93

Q: With CSDRCTTYCLFSLSDRKRIL as the substance, how does the amyloid nucleation score read?
A: -0.317 ± 0.25

Q: Which amyloid nucleation score does the source give for WSGIVFRIEGVAYVVHVNDA here?
A: 1.17 ± 0.18
